The results in this text go back to the nanobody polyreactivity screen of Harvey et al. (2022).

A short description of this series: yeast display, Sf9 membrane polyspecificity reagent, FACS + sequencing; frameworks hold sequencing errors. In outline:
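Nanobodies came from a synthetic yeast display library in Saccharomyces cerevisiae BJ5465, induced with galactose for 36–48 hours and stained for 1 hour at 4 °C with 10% biotinylated, detergent-solubilized Sf9 membrane reagent. Cells were enriched on streptavidin microbeads and then FACS-sorted, with low and high (top ~1%) gates set on anti-HA fluorescence for expression and streptavidin fluorescence for reagent binding. Each polyreactivity label reflects the gate a clone came from. Genes were amplified by colony PCR, sequenced by MiSeq 2 × 250 and filtered by CDR length.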
In the case of “QVQLVESGGGLVQAGGSLRLSCAASGRIFGLNAMGWYRQAPGKERELVAAISERDGSTYYADSVKGRFTISRDNAKNTVYLQMNSLKPEDTAVYYCAAEKPVHYVRGVHYDYWGQGTQVTVSS”, the “polyreactivity (PSR sort gate)” value was “low polyreactivity”.
With “QVQLVESGGGLVQAGGSLRLSCAASGRIFGLNAMGWYRQAPGKERELVAAISERDGSTYYADSVKGRFTISRDNAKNTVYLQMNSLKPEDTAVYYCAAVTPVHYVRGVHYDYWGQGTQVTVSS”, the “polyreactivity (PSR sort gate)” value is “low polyreactivity”.
In the case of “QVQLVESGGGLVQAGGSLRLSCAASGRIFGLNSLGWYRQAPGNEMELVAAIDIIGGSTYYADSVKGRFTISRDNAKNTVYLQMNSLKPEDTAVYYCAAEADFWRYVEYDYWGQGTQVTVSS”, the “polyreactivity (PSR sort gate)” value was “low polyreactivity”.
Under “QVQLVESGGGLVQAGGSLRLSCAASGRIFGLYAMGWYRQAPGKERELVAAIRSSGGSTYYADSVKGRFTISRDNAQNTVYLQMISQKPDDTAVYYCAADGDEDGEYWGQGTQVTVSS” stands “low polyreactivity”.
Turning to “QVQLVESGGGLVQAGGSLRLSCAASGRIFGLYAMGWYRQAPGKERELVAAITLSGDGTDYADSVKGRFTISRDNAKNTVYLQMNSLKPEDTPVYYCAKVGQYWWNMDYWGQGTQVTVSS”, the “polyreactivity (PSR sort gate)” value was “low polyreactivity”.
Under “QVQLVESGGGLVQAGGSLRLSCAASGRIFGNNAMGWYRQAPGKERELVAAISWSARSTYADSVKGRFTISRDNAKNTVYLQMNSLKPEVTAVYYCNADSAARKGWPIYGYWGQGTKVTVSS” stands “high polyreactivity”; under “QVQLVESGGGLVQAGGSLRLSCAASGRIFGNYAMGWSRQAPGKERELVSAITYSTGGTSTYADSVKGLFTISRDNAKNSVYLQMNSLKPEDTAVYYCAVRRQYRRAYSFSQSRYDYWGQGTQVTVSS”, “high polyreactivity”.
On to “QVQLVESGGGLVQAGGSLRLSCAASGRIFGNYAMGWYRQAPGKERELVAAIRWSGGRTYYADSVKGRFTISRDTAKNTVYLQMNSLKPEDTAVYYCNAYGRYSYPTFDYWGQGTQVTVSS”, for which the “polyreactivity (PSR sort gate)” value is “high polyreactivity”.
Take “QVQLVESGGGLVQAGGSLRLSCAASGRIFGNYAMGWYRQAPGKESELVAAISGGGSTYYADSVKGRFTISRDNAKNTVYLQMNSLKPEDTAVYYCAARFLWSVFGRKGGYWGQGTQVTVSS”: the “polyreactivity (PSR sort gate)” value is given as “low polyreactivity”.
In the case of “QVQLVESGGGLVQAGGSLRLSCAASGRIFGPNAMGWYRPAPGKERELVAAISTRDGSTSYADSVKGRFTISRDNAKNTVYLQMNSLKPEDTAVYYCAKRWPYWYRVTQYDNVDYWGQGTQVTVSS” it was “low polyreactivity”; in that of “QVQLVESGGGLVQAGGSLRLSCAASGRIFGPYAMGWYRQAPGKERELVATITWSGVSTYYADSVKGRFTISRDNAKNTVYLQMNSLKPEDTAVYYCNAKRTGQWFLHVPVYYWGQGTQVTVSS”, “low polyreactivity”; in that of “QVQLVESGGGLVQAGGSLRLSCAASGRIFGPYAMGWYRQAPGTERELVAAIRASSSSTYYADSVKGRFTISRDNAKNTVYLQMNSLKPEDTAVYYCAADWYYGYAWKYGYWGQGTQVTVSS”, “low polyreactivity”.
Under “QVQLVESGGGLVQAGGSLRLSCAASGRIFGPYTKGWYRQAPGKERELVATISYSGSTTYYADSVKGRFTISRDNAKNTVYLQMNSLKPEDTAVYYCAAYYWARRDWGQGTQVTVSS” stands “high polyreactivity”.
Under “QVQLVESGGGLVQAGGSLRLSCAASGRIFGPYTMGWYRPAPGKEREFVAAISRSGDSTYYADSVKGRFTISRDNAKNTVYLHMNSLKPADTAVYYCAAKYGTRLTAYYYWGQGTQVTVSS” stands “high polyreactivity”; under “QVQLVESGGGLVQAGGSLRLSCAASGRIFGQNAMGWYRQAPGKERELVAVITSRGTRTYYADSVKGRFTISRDNAKNTVYLQMNSLKPEDTAVYYCAADVYSDNYKTWPYDYWGQGTQVTVSS”, “low polyreactivity”.
For the sequence “QVQLVESGGGLVQAGGSLRLSCAASGRIFGQNTMGWYRQAPGKERELVAAITWNGGRTYYADSVKGRFTISRDNAKNTVYLQMNSLKPEDTAVYYCAARYSTYPWYNYWGQGTQVTVSS”, the “polyreactivity (PSR sort gate)” value was “high polyreactivity”.
